Assay results taken from US20250243286A1 (SIXPEAKS BIO, published 2025).
Where two headings read alike, the source gives them in different places.

T1: human ActRIIB (human, UniProt Q13705 19-137, limits assumed)
T1 construct: antigen in MSD-SET; also called ACVR2B; ActR2B
T1 sequence: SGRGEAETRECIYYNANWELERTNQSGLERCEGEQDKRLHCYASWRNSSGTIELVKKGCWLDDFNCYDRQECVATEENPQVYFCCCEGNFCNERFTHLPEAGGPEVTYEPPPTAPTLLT


Key:
Pig ActRIIA = Pig ActRIIA (pig, UniProt F1S0H6 20-135); assay: MSD-SET
human ActRIIB [1] = target: T1, human ActRIIB; assay: MSD-SET
mouse ActRIIA = mouse ActRIIA (mouse, UniProt P27038 20-135, limits assumed); assay: MSD-SET
human ActRIIB [2] = target: T1, human ActRIIB; assay: MSD-SET; remark: listed apart in the source
human ActRIIB [3] = target: T1, human ActRIIB; assay: MSD-SET, preliminary
human ActRIIB [4] = target: T1, human ActRIIB; assay: MSD-SET; remark: listed apart in the source
human ActRIIA [5] = target: T2, human ActRIIA (human, UniProt P27037 20-135, limits assumed); assay: MSD-SET
T2 construct: antigen in MSD-SET; also called ACVR2A; ActR2A

human ActRIIB [6] = target: T1, human ActRIIB; assay: MSD-SET; remark: listed apart in the source
human ActRIIA [7] = target: T2, human ActRIIA; assay: MSD-SET; remark: listed apart in the source
[8] = target: T3, ActRIIA and ActRIIB (on TGFB/SMAD SBE Reporter HEK293 cells) (human)
[9] = target: T3, ActRIIA and ActRIIB (on TGFB/SMAD SBE …); assay: cell-based or functional assay
human ActRIIA [10] = target: T2, human ActRIIA; assay: MSD-SET; remark: listed apart in the source
[11] = target: T3, ActRIIA and ActRIIB (on TGFB/SMAD SBE …); remark: listed apart in the source
[12] = target: T3, ActRIIA and ActRIIB (on TGFB/SMAD SBE …); assay: cell-based or functional assay; remark: listed apart in the source
human ActRIIA [13] = target: T2, human ActRIIA; assay: MSD-SET; remark: listed apart in the source
[14] = target: T3, ActRIIA and ActRIIB (on TGFB/SMAD SBE …); assay: cell-based or functional assay; remark: listed apart in the source
human ActRIIB [15] = target: T1, human ActRIIB; assay: MSD-SET; human ActRIIB; full-length IgG (Table 4B)
human ActRIIB [16] = target: T1, human ActRIIB; assay: MSD-SET; Fab, not IgG

T2 sequence (P27037 20-135 limits assumed): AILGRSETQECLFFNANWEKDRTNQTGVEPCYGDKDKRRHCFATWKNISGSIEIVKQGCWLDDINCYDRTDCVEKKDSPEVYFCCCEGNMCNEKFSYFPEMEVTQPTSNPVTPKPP
Sequence of mouse ActRIIA (P27038 20-135 limits assumed): as the sequence (P27037 20-135 limits assumed) above, with K20R, V73I counted along it

Row | Binder | Kd (human ActRIIB [4]) [pM] | Kd (human ActRIIA [5]) [pM] | Kd (human ActRIIB [6]) [pM] | Kd (human ActRIIA [7]) [pM] | IC50 (read off the curve); Myostatin-stimulated SMAD reporter gene assay [8] [pM] | IC50, Activin SMAD RGA [9] [pM] | IC50, Myostatin SMAD RGA [9] [pM] | IC50 (read off the curve); Activin-stimulated SMAD reporter gene assay [11] [pM] | IC50, Activin SMAD RGA [12] [pM] | IC50, Myostatin SMAD RGA [12] [pM] | IC90, Activin SMAD RGA [12] [pM] | IC90, Myostatin SMAD RGA [12] [pM] | also measured
1 | Ofaschlupfer Fab (Fab, V domains shown, Fab) VH: QVQLVQSGAEVKKPGSSVKVSCKASGYTFTSSYINWVRQAPGQGLEWMGTINAVSGSTSYAQKFQGRVTITADTSTSTAYMELSSLRSEDTAVYYCARGGWFDYWGQGTLVTVSS VL: QSALTQPRSVSGSPGQSVTISCTGTSSDVGSKNYVNWYQQHPGKAPKLMIYGVSKRESGVPDRFSGSKSGNTASLTISGLQAEDEADYYCGTFAGGKYYGVFGGGTKLTVL | – | – | – | – | – | – | – | – | – | – | – | – | Kd (Pig ActRIIA): 10 pM; Kd (human ActRIIB [1]): 2 pM; Kd (mouse ActRIIA): 18 pM; Kd (human ActRIIB [2]): 3.3 pM; Kd (human ActRIIB [3]): 25.3 pM
2 | Antibody Rippla (antibody, V domains shown, full-length IgG; also called Ripp1a) VH: QVQLVQSGAEVRKPGASVKVSCKASGYTFTSSYINWVRQAPGQGLEWMGTINPVSGSTSYAQKFQGRVTMTRDTSISTAYMELSRLRSDDTAVYYCARGGWFDYWGQGTLVTVSS VL: QSALTQPASVSGSPGQSITISCTGTSSDVGSYNRVNWYQQHPGKAPKLMIYGVSKRESGVSNRFSGSKSGNTASLTISGLQAEDEADYYCGTFAGGRYYGVFGGGTKLTVL | 5 | 41 | 5 | 42 | 200 | 90 | 150 | 200 | 58.2 | 213 | 1580 | 9650 | Fold Difference to bimagrumab (human ActRIIA [10]): 4 fold; Kd (human ActRIIA [10]): 41 pM; IC50 [nM] (assay not given) [12]: 0.0209 nM; IC50 fold difference to bimagrumab (assay not given) [12]: 25.6 fold; IC90 [nM] (assay not given) [12]: 1.27 nM; IC90 fold difference to bimagrumab (assay not given) [12]: 6.33 fold
3 | Hefaknöpfla Fab (Fab, V domains shown, Fab) VH: QVQLVQSGAEVKKPGASVKVSCKASGYTFTSSYINWVRQAPGQGLEWMGTINAVSGSTSYAQKFQGRVTMTRDTSISTAYMELSRLRSDDTAVYYCARGGWFDYWGQGTLVTVSS VL: QSALTQPASVSGSPGQSITISCTGTSSDVGSKNYVNWYQQHPGKAPKLMIYGVSKRESGVSNRFSGSKSGNTASLTISGLQAEDEADYYCGTFAGGKYYGVFGGGTKLTVL | – | – | – | 91 | – | 4060 | 3700 | – | – | – | – | – | IC50 fold difference (Fab:IgG), Activin SMAD RGA [9]: 31.5 fold; IC50 fold difference (Fab:IgG), Myostatin SMAD RGA [9]: 14.2 fold; Kd (human ActRIIB [16]): 228 pM

Second part, led by results:

Row | Kd (human ActRIIB [4]) [pM] | Kd (human ActRIIA [5]) [pM] | Kd (human ActRIIB [6]) [pM] | Kd (human ActRIIA [7]) [pM] | IC50 (read off the curve); Myostatin-stimulated SMAD reporter gene assay [8] [pM] | IC50, Activin SMAD RGA [9] [pM] | IC50, Myostatin SMAD RGA [9] [pM] | IC50 (read off the curve); Activin-stimulated SMAD reporter gene assay [11] [pM] | IC50, Activin SMAD RGA [12] [pM] | IC50, Myostatin SMAD RGA [12] [pM] | IC90, Activin SMAD RGA [12] [pM] | IC90, Myostatin SMAD RGA [12] [pM] | Binder | also measured
4 | 8 | 29 | 8 | 29 | 700 | 430 | 480 | 300 | 347 | 513 | 3820 | 4630 | Antibody Fasnetsküchla (antibody, V domains shown, full-length IgG) VH: QVQLVQSGAEVKKPGASVKVSCKASGYTFTSSYINWVRQAPGQGLEWMGTINAVSGSTSYAQKFQGRVTMTRDTSISTAYMELSRLRSDDTAVYYCARGGWFDYWGQGTLVTVSS VL: QSALTQPASVSGSPGQSITISCTGTSSDVGSANYVNWYQQHPGKAPKPMIYGVSRRPSGVSNRFSGSKSGNTASLTISGLQAEDEADYYCGTFAGGKYYGVFGGGTKLTVL | –
5 | – | 14 | – | 14 | – | 140 | 330 | – | 134 | 263 | 2140 | 2180 | Antibody Riaba (antibody, V domains shown, full-length IgG) VH: QVQLVQSGAEVKKPGASVKVSCKASGYTFTSSYINWVRQAPGQGLEWMGTINAVSGSTSYAQKFQGRVTMTRDTSISTAYMELSRLRSDDTAVYYCARGGWFDYWGQGTLVTVSS VL: QSALTQPASVSGSPGQSITISCTGTSSDVGSYNYVNWYQQHPGKAPKLMIYGVSKRDSGVSNRFSGSKSGNTASLTISGLQAEDEADYYCGTFAGGKYYGVFGGGTKLTVL | Fold Difference to bimagrumab (human ActRIIA [13]): 10 fold; Kd (human ActRIIA [13]): 14 pM; IC50 [nM] (assay not given) [14]: 0.0371 nM; IC50 fold difference to bimagrumab (assay not given) [14]: 7.96 fold; IC90 [nM] (assay not given) [14]: 1.6 nM; IC90 fold difference to bimagrumab (assay not given) [14]: 4.11 fold; Kd (human ActRIIB [15]): 4 pM
